Measured values from patent US20110189292A1 (ALLERGAN, published 2011).

How the values were obtained:
[1] = molecular target: T1, silk fibroin, sericin-extracted, from degummed Bombyx mori silk, dissolved in 9.3 M LiBr and dialysed (Bombyx mori, UniProt P05790 22-5263; P21828 17-262, limits assumed); experiment: reading of the HPLC ratios of the silk precipitates
T1 construct: also called silk molecules
Method: (§1) The amount of 23RGD bound to silk precipitates was quantified by analyzing lyophilized samples. The 23RGD was removed by incubating the samples for 4 hours in a dissolving buffer, then centrifuging on an Eppendorf 5415C (Eppendorf North America Inc., Westbury, N.Y.) at 16,000 g (RCF) for 30 minutes and the supernatant collected. This supernatant was then centrifuged in identical fashion and the final supernatant collected for HPLC analysis using a PerkinElmer Series 200 (PerkinElmer, Waltham, Mass.). The 23RGD peak areas from each curve were compared against a standard curve. 1-Way ANOVA was used to test for significant differences caused by changing silk concentration, 23RGD concentration, and accelerant volume. A Student's t-test was used to test the significance of differences resulting from altered ethanol concentrations.

[2] = molecular target: T1, silk fibroin, sericin-extracted, from …; experiment: HPLC of 23RGD extracted from silk precipitate; formulation 0.6S 3R 10:1
Method: as §1
Precipitate samples generated at a calculated 10:1 23RGD:silk ratio consistently generated a “correct” molecular binding ratio. In the case of AVHI, this runs contrary to the trend of bound 23RGD concentrations being approximately double the projected values as indicated by AVLO and BASE (about 5:1 and about 9:1, respectively). This might be explained by saturation of the silk with 23RGD in the case of 10:1 23RGD precipitates. […]

[3] = molecular target: T1, silk fibroin, sericin-extracted, from …; experiment: HPLC of 23RGD extracted from lyophilised silk precipitate; formulation RHI
Method: as §1

[4] = molecular target: T1, silk fibroin, sericin-extracted, from …; experiment: HPLC of 23RGD extracted from the rinsed silk gel, against a standard curve
From the text: 23RGD-infused gels were studied to quantify the amount of 23RGD bound to the silk-hydrogel device as well as the quantity of free 23RGD which might be rinsed free of the device under relevant conditions. Briefly, samples of 23RGD-infused gel were cast and rinsed according to the methods above, with samples of rinse buffer being collected from each rinse for subsequent analysis by HPLC. Additionally, subsequent to the last rinse, the gel samples were mechanically pulverized by means of a stainless steel stirring rod and the adsorbed 23RGD removed by incubation for 4 hours in a dissolving buffer. This mixture of gel and solvent was then centrifuged on an Eppendorf 5415C at 16,000 g RCF for 30 minutes. The supernatant was collected and centrifuged another 30 minutes at 16,000 g RCF after which time the supernatant was collected in a sample vial for HPLC analysis. Samples of rinse buffer from the first and last rinse were centrifuged in the same fashion after being diluted with the same solvent the gel was extracted with in a volumetric ratio of 1 part rinse buffer to 4 parts solvent. To ensure 23RGD-hydrogel device rinse-exposed surface area was not a limiting factor, the same rinse and extraction process was performed upon devices pulverized after gelation and before rinsing. […]

[5] = molecular target: T1, silk fibroin, sericin-extracted, from …; experiment: HPLC of 23RGD extracted from lyophilised silk precipitate; formulation AVHI
Method: as §1

[6] = molecular target: T1, silk fibroin, sericin-extracted, from …; experiment: HPLC of 23RGD extracted from lyophilised silk precipitate; formulation AVLO
Method: as §1

[7] = molecular target: T1, silk fibroin, sericin-extracted, from …; experiment: HPLC of 23RGD extracted from lyophilised silk precipitate; formulation BASE
Method: as §1

[8] = molecular target: T1, silk fibroin, sericin-extracted, from …; experiment: HPLC of 23RGD extracted from lyophilised silk precipitate; formulation SCLO
Method: as §1

[9] = molecular target: T1, silk fibroin, sericin-extracted, from …; experiment: HPLC of 23RGD extracted from lyophilised silk precipitate; formulation SCVLO
Method: as §1

[10] = molecular target: T1, silk fibroin, sericin-extracted, from …; experiment: HPLC of 23RGD extracted from lyophilised silk precipitate; formulation printed as RLO
Method: as §1

[11] = molecular target: T1, silk fibroin, sericin-extracted, from …; experiment: HPLC of 23RGD extracted from lyophilised silk precipitate; formulation printed as RMED
Method: as §1

[12] = molecular target: T1, silk fibroin, sericin-extracted, from …; experiment: HPLC of 23RGD extracted from silk precipitate; formulation AVLO, against the calculated ratio
Method: as §1
(§2) Few of the silk precipitates entrained a molar ratio similar to what was initially calculated (FIG. 23). Four groups, SCVLO, AVHI, RHI, and RLO contained ratios similar to their calculated values of RGD per mole of silk. The six remaining groups contained ratios substantially greater than their calculated values. In the cases of AVLO, BASE, RMED, and SCLO, the RGD quantities were about 2-fold greater than expected. Although not wishing to be limited by theory, this greater observed molar ratio may be indicative of the formation of a RGD bi-layer. […]

[13] = molecular target: T1, silk fibroin, sericin-extracted, from …; experiment: HPLC of 23RGD extracted from silk precipitate; formulation ECLO, against the calculated ratio
Method: as §1, §2

B1: 23RGD peptide (HOOC-GRGDIPASSKG4SRL6R-NH2) (peptide)
peptide: GRGDIPASSKGGGGSRLLLLLLR
modifications: not fully specified; -NH2 at the Arg end as printed (HOOC-Gly-...-Arg-NH2). An optional variant, SEQ ID NO: 2, is acylated (Ac-) and has D-arginines.
notes: also called 23RDG
apparent saturation, 23RGD:silk ratio [1]: ~10 mol 23RGD per mol silk
23RGD:silk ratio bound [2]: ~10 mol 23RGD per mol silk
23RGD:silk ratio bound [3]: 10.7 mol 23RGD per mol silk
23RGD:silk ratio bound [4]: 3.35 mol 23RGD per mol silk
23RGD:silk ratio bound [5]: 10.5 mol 23RGD per mol silk
23RGD:silk ratio bound [6]: 5.2 mol 23RGD per mol silk
23RGD:silk ratio bound [7]: 8.7 mol 23RGD per mol silk
23RGD:silk ratio bound [8]: 9.9 mol 23RGD per mol silk
23RGD:silk ratio bound [9]: 11 mol 23RGD per mol silk
23RGD:silk ratio bound [10]: 1.1 mol 23RGD per mol silk
23RGD:silk ratio bound [11]: 6.95 mol 23RGD per mol silk
fold of bound RGD over the calculated RGD:silk ratio [12]: ~2 fold
fold of bound RGD over the calculated RGD:silk ratio [13]: ~1.5 fold
